Data on one substance can be found in paper PMC8937215.

This assay deals with CCR6-NES-eLOV-TEVcs-FLAG-Gal4-V5 receiver construct, expressed in HEK293T cells.

With “CCL20 sender construct (CCL20-18 aa linker-3xHA-pre-mGRASP), expressed in HEK293T cells (ligand)”, the TRACC UAS-mCherry reporter by confocal imaging, HEK293T in trans: percent of receiver cells in contact with sender cells with reporter expression above background was 80.2%.
